This is an account of results in patent US20240317847A1 (Bayer, published 2024).

Broadly, the Kd is the concentration at which binding is half-saturated. Higher therefore signals weaker binding.

Test [1] deals with T1, human IL-11 (human, UniProt P20809 22-199).
T1 sequence: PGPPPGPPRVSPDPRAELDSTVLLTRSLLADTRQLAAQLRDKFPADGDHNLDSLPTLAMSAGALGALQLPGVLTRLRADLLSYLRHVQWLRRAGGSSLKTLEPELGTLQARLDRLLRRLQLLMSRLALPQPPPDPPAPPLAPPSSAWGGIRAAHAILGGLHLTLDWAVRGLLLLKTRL
The test can be described thus: cell-based or functional assay.

Test [2] has as its target T2, murine IL-11 (mouse, UniProt P47873 22-199).
T2 sequence: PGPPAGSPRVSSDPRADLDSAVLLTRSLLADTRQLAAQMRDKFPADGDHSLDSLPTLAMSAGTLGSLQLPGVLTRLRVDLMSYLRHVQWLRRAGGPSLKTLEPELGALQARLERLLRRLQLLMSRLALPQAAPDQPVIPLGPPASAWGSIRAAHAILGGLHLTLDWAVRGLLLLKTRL
Put plainly: cell-based or functional assay.

Test [3] addresses T1, human IL-11. The test can be described thus: cell-based or functional assay. The source holds these as a separate data set.
The target of test [4] is T2, murine IL-11. Put plainly: cell-based or functional assay. The source holds these as a separate data set.
The target in test [5] is T1, human IL-11. Put plainly: SPR; limit told of 12 single-site germlining mutants; antigen not given, SPR run on human and mouse IL-11. A general note: SPR reads the build-up and loss of mass on a sensor chip optically.
In test [6] the target is T2, murine IL-11. The test is described as above.

B1: TPP-31293 (antibody, IgG4, V domains shown)
VH: EVQLLESGGGLVQPGGSLRLSCAASGFTFSHYDMNWVRQAPGKGLEWVGVISYDGSNKFYADFVKGRFTISRDNSKNTLYLQMNSLRAEDTAVYYCARTPGSHFDYWGQGTLVTVSS
VL: QSVLTQPPSASGTPGQRVTISCSGSSSNIGNNAVNWYQQLPGTAPKLLIYYDDLLPSGVPDRFSGSKSGTSASLAISGLRSEDEADYYCSAWDDSLNGVVFGGGTKLTVL
notes: hIgG4 SPLE, lambda
Turning to B1, the “IC50, RGA 1” value was 58 nM in the test with human IL-11 [1] and 31 nM with murine IL-11 [2]. The “IC50, RGA 2” value with human IL-11 [1] and with murine IL-11 [2] was 13 nM throughout. Further, the “RGA potency (mean)” value with human IL-11 [3] and with murine IL-11 [4] was < 170 nM each time. For the same molecule, the dissociation constant Kd with human IL-11 [5] and in the test with murine IL-11 [6] was < 19 nM throughout.

B2: TPP-31278 (antibody, IgG4, V domains shown)
VH: EVQLLESGGGLVQPGGSLRLSCAASGFTFSHYDMNWLRQAPGKGLEWVGVISYDGSNKFYADFVKGRFTISRDNSKNTLYLQMNSLRAEDTAVYYCARTPGSHFDYWGQGTLVTVSS
VL: QSVLTQPPSASGTPGQRVTISCSGSSSNIGNNYVNWYQQLPGTAPKLLIYYDDLLPSGVPDRFSGSKSGTSASLAISGLRSEDEADYYCSAWDDSLNGVVFGGGTKLTVL
notes: hIgG4 SPLE, lambda
For B2, the “IC50, RGA 1” value with human IL-11 [1] turned out to be 22 nM; with murine IL-11 [2] it was 0.13 nM. Also, the “IC50, RGA 2” value with human IL-11 [1] turned out to be 2.36 nM; with murine IL-11 [2], 0.08 nM. Besides, the “RGA potency (mean)” value with human IL-11 [3] and in the test with murine IL-11 [4] was < 170 nM each time. Also, the equilibrium dissociation constant (Kd) with human IL-11 [5] and in the test with murine IL-11 [6] was < 19 nM throughout.

B3: TPP-31284 (antibody, IgG4, V domains shown)
VH: EVQLLESGGGLVQPGGSLRLSCAASGFTFSHYDMNWLRQAPGKGLEWVGVISYDGSNKFYADFVKGRFTISRDNSKNTLYLQMNSLRAEDTAVYYCARTPGSHFDYWGQGTLVTVSS
VL: QSVLTQPPSASGTPGQRVTISCSGSSSNIGNNAVNWYQQLPGTAPKLLIYYDDLRPSGVPDRFSGSKSGTSASLAISGLRSEDEADYYCSAWDDSLNGVVFGGGTKLTVL
notes: hIgG4 SPLE, lambda
For the molecule B3, the entries for the “IC50, RGA 1” value in the test with human IL-11 [1] and in the test with murine IL-11 [2] were 101 nM and 65 nM, respectively. For the same molecule, the entries for the “IC50, RGA 2” value with human IL-11 [1] and with murine IL-11 [2] were 131 nM and 17 nM, respectively. Besides, the “RGA potency (mean)” value with human IL-11 [3] and with murine IL-11 [4] was < 170 nM each time. The Kd in the test with human IL-11 [5] and with murine IL-11 [6] was < 19 nM throughout.

B4: TPP-31277 (antibody, IgG4, V domains shown)
VH: EVQLLESGGGLVQPGGSLRLSCAASGFTFSHYDMNWLRQAPGKGLEWVGVISYDGSNKFYADFVKGRFTISRDNSKNTLYLQMNSLRAEDTAVYYCARTPGSHFDYWGQGTLVTVSS
VL: QSVLTQPPSASGTPGQRVTISCSGSSSNIGSNAVNWYQQLPGTAPKLLIYYDDLLPSGVPDRFSGSKSGTSASLAISGLRSEDEADYYCSAWDDSLNGVVFGGGTKLTVL
notes: hIgG4 SPLE, lambda
Take B4: the “IC50, RGA 1” value with human IL-11 [1] was found to be 211 nM; with murine IL-11 [2], 43 nM. Besides, the “IC50, RGA 2” value is 47 nM with human IL-11 [1] and 27 nM with murine IL-11 [2]. Also, the “RGA potency (mean)” value in the test with human IL-11 [3] and with murine IL-11 [4] was < 170 nM each time. Further, the dissociation constant Kd with human IL-11 [5] and with murine IL-11 [6] was < 19 nM in each case.

B5: TPP-31292 (antibody, IgG4, V domains shown)
VH: EVQLLESGGGLVQPGGSLRLSCAASGFTFSHYDMHWLRQAPGKGLEWVGVISYDGSNKFYADFVKGRFTISRDNSKNTLYLQMNSLRAEDTAVYYCARTPGSHFDYWGQGTLVTVSS
VL: QSVLTQPPSASGTPGQRVTISCSGSSSNIGNNAVNWYQQLPGTAPKLLIYYDDLLPSGVPDRFSGSKSGTSASLAISGLRSEDEADYYCSAWDDSLNGVVFGGGTKLTVL
notes: hIgG4 SPLE, lambda
As to B5, the “IC50, RGA 1” value is 234 nM in the test with human IL-11 [1] and 52 nM with murine IL-11 [2]. The “IC50, RGA 2” value with human IL-11 [1] amounted to 107 nM; with murine IL-11 [2], 39 nM. The “RGA potency (mean)” value with human IL-11 [3] and with murine IL-11 [4] was < 170 nM each time. Also, the equilibrium dissociation constant (Kd) with human IL-11 [5] and with murine IL-11 [6] was < 19 nM throughout.

B6: TPP-31296 (antibody, IgG4, V domains shown)
VH: EVQLLESGGGLVQPGGSLRLSCAASGFTFSHYDMNWLRQAPGKGLEWVGVISYDGSNKFYADSVKGRFTISRDNSKNTLYLQMNSLRAEDTAVYYCARTPGSHFDYWGQGTLVTVSS
VL: QSVLTQPPSASGTPGQRVTISCSGSSSNIGNNAVNWYQQLPGTAPKLLIYYDDLLPSGVPDRFSGSKSGTSASLAISGLRSEDEADYYCSAWDDSLNGVVFGGGTKLTVL
notes: hIgG4 SPLE, lambda
B6: the “IC50, RGA 1” value with human IL-11 [1] stood at 46 nM; with murine IL-11 [2] it was 20 nM. For the same molecule, the “IC50, RGA 2” value in the test with human IL-11 [1] amounted to 158 nM; in the test with murine IL-11 [2], 22 nM. In addition, the “RGA potency (mean)” value with human IL-11 [3] and in the test with murine IL-11 [4] was < 170 nM throughout. Also, the dissociation constant (Kd) in the test with human IL-11 [5] and with murine IL-11 [6] was < 19 nM in each case.

B7: TPP-31285 (antibody, IgG4, V domains shown)
VH: EVQLLESGGGLVQPGGSLRLSCAASGFTFSHYDMNWLRQAPGKGLEWVGVISYDGSNKFYADFVKGRFTISRDNSKNTLYLQMNSLRAEDTAVYYCARTPGSHFDYWGQGTLVTVSS
VL: QSVLTQPPSASGTPGQRVTISCSGSSSNIGNNAVNWYQQLPGTAPKLLIYYDDLLPSGVPDRFSGSKSGTSASLAISGLRSEDEADYYCAAWDDSLNGVVFGGGTKLTVL
notes: hIgG4 SPLE, lambda
On to B7, for which the entries for the “IC50, RGA 1” value in the test with human IL-11 [1] and with murine IL-11 [2] were 50 nM and 111 nM, respectively. In addition, the “IC50, RGA 2” value in the test with human IL-11 [1] came out at 16 nM; in the test with murine IL-11 [2], 23 nM. Moreover, the “RGA potency (mean)” value with human IL-11 [3] and in the test with murine IL-11 [4] was < 170 nM each time. In addition, the equilibrium dissociation constant (Kd) in the test with human IL-11 [5] and in the test with murine IL-11 [6] was < 19 nM each time.

B8: TPP-31294 (antibody, IgG4, V domains shown)
VH: EVQLLESGGGLVQPGGSLRLSCAASGFTFSHYDMNWLRQAPGKGLEWVAVISYDGSNKFYADFVKGRFTISRDNSKNTLYLQMNSLRAEDTAVYYCARTPGSHFDYWGQGTLVTVSS
VL: QSVLTQPPSASGTPGQRVTISCSGSSSNIGNNAVNWYQQLPGTAPKLLIYYDDLLPSGVPDRFSGSKSGTSASLAISGLRSEDEADYYCSAWDDSLNGVVFGGGTKLTVL
notes: hIgG4 SPLE, lambda
As to B8, the entries for the “IC50, RGA 1” value with human IL-11 [1] and with murine IL-11 [2] were 96 nM and 41 nM, respectively. The “IC50, RGA 2” value is 38 nM in the test with human IL-11 [1] and 28 nM in the test with murine IL-11 [2]. The “RGA potency (mean)” value with human IL-11 [3] and with murine IL-11 [4] was < 170 nM each time. In addition, the Kd with human IL-11 [5] and with murine IL-11 [6] was < 19 nM in each case.
